Test results reported in patent publication US5767078A, “Agonist peptide dimers” (priority 1995, dated 1998).
Read-outs that look alike come from different tables or passages of the source. Bridge positions count the residues as written; N and C are the ends. Ends that are not written are not given here. Peptide text beside a SMILES is read from it.

Columns and labels:
[1] = target: T1, truncated human EPO receptor (Homo sapiens, UniProt P19235); test: EPO dependent cell proliferation assay, FDC-P1/trER cells; type: cell-based; conditions: for EC50: read-out: EPO-ED50 truncated human receptor; for change in potency of dimer versus parent monomer (in parentheses), truncated human receptor: ratio of ED50 values
T1 construct: expressed in transfected cells; host or cells: FDC-P1/trER cells (murine FDC-P1 derived)
T1 sequence (P19235 25-468 limits assumed): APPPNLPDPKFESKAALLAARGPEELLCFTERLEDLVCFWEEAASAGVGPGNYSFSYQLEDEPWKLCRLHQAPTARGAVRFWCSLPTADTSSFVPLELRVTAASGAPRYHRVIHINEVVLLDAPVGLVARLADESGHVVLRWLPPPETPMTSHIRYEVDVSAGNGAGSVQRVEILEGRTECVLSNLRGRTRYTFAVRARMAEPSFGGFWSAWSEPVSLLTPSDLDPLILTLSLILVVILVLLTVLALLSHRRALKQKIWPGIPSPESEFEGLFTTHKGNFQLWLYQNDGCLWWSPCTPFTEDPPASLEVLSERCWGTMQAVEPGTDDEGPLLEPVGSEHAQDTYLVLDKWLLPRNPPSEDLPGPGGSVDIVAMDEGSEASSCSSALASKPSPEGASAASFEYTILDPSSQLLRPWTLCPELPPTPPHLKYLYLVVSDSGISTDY
Method: (§1) After 24 hours, the cells were counted, resuspended at 800,000 cells/ml and dispensed at 40,000 cells/well. Stock solutions of the peptide dimer (5 mM in PBS) and peptide (10 mM in DMSO) were prepared and dispensed in triplicate to final concentrations of 1×10^-10 M through 1×10^-5 M and adjusted to a final volume of 0.2 ml. […] After a 42 hr incubation at 37° C. (ca. 2 cell doublings) 1 μCi/well of [^3 H] thymidine was added and the incubation continued for 6 hr at which time the cells were harvested and counted to assess [^3 H]thymidine incorporation as a measure of cell proliferation.

[2] = target: T2, murine EPO receptor (Mus musculus, UniProt P14753); test: EPO dependent cell proliferation assay, FDC-P1/ER cells; type: cell-based; conditions: for EPO-ED50 murine receptor / change in potency of dimer versus parent monomer (in parentheses), murine receptor: FDC-P1/ER; for EPO-ED50 murine receptor: [3H]thymidine incorporation, amount giving half of maximal activity obtained with EPO; for change in potency of dimer versus parent monomer (in parentheses), murine receptor: ratio of ED50 values
T2 construct: expressed in transfected cells; host or cells: FDC-P1/ER cells
T2 sequence (P14753 25-507): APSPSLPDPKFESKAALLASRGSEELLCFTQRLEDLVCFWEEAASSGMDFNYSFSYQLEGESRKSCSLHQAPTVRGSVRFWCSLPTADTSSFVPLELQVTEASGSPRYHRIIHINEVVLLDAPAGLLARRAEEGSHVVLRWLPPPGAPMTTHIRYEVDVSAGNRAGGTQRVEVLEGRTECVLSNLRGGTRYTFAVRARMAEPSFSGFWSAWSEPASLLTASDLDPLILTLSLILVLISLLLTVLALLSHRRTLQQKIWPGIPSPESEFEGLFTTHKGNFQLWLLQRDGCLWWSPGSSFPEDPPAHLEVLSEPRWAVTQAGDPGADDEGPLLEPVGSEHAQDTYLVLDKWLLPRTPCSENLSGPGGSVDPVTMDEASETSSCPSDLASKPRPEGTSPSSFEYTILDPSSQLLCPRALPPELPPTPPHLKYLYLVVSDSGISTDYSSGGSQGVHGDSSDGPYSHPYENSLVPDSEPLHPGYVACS
Method: as §1

[3] = target: T3, extracellular domain of the human erythropoietin receptor (EPO binding protein, EBP) (Homo sapiens, UniProt P19235); test: Immobilized EBP based [125I]EPO competition binding assay; conditions: for Relative Binding (binding relative to Seq. I. D. No. 8): IC50 in [125I]EPO competition on EBP beads, relative to Seq. I. D. No. 8 (IC50 5 μM)
T3 construct: made in house; host or cells: E. coli
T3 sequence (P19235 25-250 limits assumed): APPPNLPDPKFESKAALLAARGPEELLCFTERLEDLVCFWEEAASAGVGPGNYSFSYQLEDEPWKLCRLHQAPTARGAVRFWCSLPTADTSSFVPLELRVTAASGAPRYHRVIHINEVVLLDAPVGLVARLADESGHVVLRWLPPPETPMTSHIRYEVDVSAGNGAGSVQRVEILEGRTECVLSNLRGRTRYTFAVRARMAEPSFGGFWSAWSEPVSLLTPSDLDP
Method: The iodoacetyl activation chemistry of Sufolink beads (Pierce Chemical Co, Rockford, Ill.) is specific for free thiols and assures that the linkage is not easily reversible. EBP-Sulfolink beads were made as follows: SulfoLink gel suspension (10 ml) was mixed with of coupling buffer (40 ml: 50 mM Tris, pH 8.3, 5 mM EDTA) and the gel was allowed to settle. […] The mixture was rocked gently for 30 minutes at room temperature and the beads were allowed to settle for 1 hour at room temperature. The supernatant was removed and retained. The beads were washed twice with 20 ml of coupling buffer. The washes were recovered as well. The beads were then treated with 20 ml of 0.05M cysteine for 30 minutes at room temperature to block unbound sites. Finally, the beads were washed with 50 ml of 1M NaCl, then with 30 ml of PBS, and resuspended in 20 ml of PBS and stored at 4° C. The amount of EBP which was covalently bound to the beads was determined by comparing the OD280 of the original EBP solution to the total OD280 recovered in the reaction supernatant and the two 20 ml washes.
Competitive binding analysis assays of candidate peptides and dimer peptides were performed as outlined below. Individual peptides were dissolved in DMSO to prepare a stock solution […]. Dimer peptides were contained within PBS at a concentration of 5 mM.
Initial assay points with no added peptide were included in each assay to determine total binding. Binding mixtures were incubated overnight at room temperature with gentle rocking. The beads were then collected using Micro-columns (Isolab, Inc.) and washed with 3 mL of wash buffer. The columns containing the washed beads were placed in 12×75 mm glass tubes and bound radioactivity levels determined in a gamma counter.

[4] = FDC-P1/trER, [3H]thymidine incorporation, amount giving half of maximal activity obtained with EPO

Row | Molecule | EPO-ED50 murine receptor [2] [µM] | Relative Binding (binding relative to Seq. I. D. No. 8) [3] | EC50 [1, 4] [µM] | other results
1 | dimeric peptide: PEG (SPA2) dimer of peptide SCHFGPLTWVCK (SEQ ID NO: 18), Example 7 (SCHFGPLTWVCK-NH2; disulfide 2-11 (inferred); also: PEG (SPA2) covalent dimer) | – | – | – | proliferation (cpm) relative to background ([1]; 10^-5 M, human EPO receptor cell line, FIG. 8): twice as many cpm as background
2 | CC(C)C[C@@H]1NC(=O)[C@@H]2CCCN2C(=O)CNC(=O)[C@H](Cc2ccccc2)NC(=O)[C@H](Cc2c[nH]cn2)NC(=O)[C@@H](NC(=O)[C@H](CO)NC(=O)[C@H](Cc2ccc(O)cc2)NC(=O)[C@@H](NC(=O)CNC(=O)CN)[C@@H](C)O)CSSC[C@@H](C(=O)N[C@@H](CCCCN)C(=O)N2CCC[C@H]2C(=O)N[C@@H](CCC(N)=O)C(=O)NCC(=O)NCC(N)=O)NC(=O)[C@H](C(C)C)NC(=O)[C@H](Cc2c[nH]c3ccccc23)NC(=O)[C@H]([C@@H](C)O)NC1=O [Seq. I. D. No. 8] (H-GGTYSCHFGPLTWVCKPQGG-NH2; disulfide 6-15) | – | – | – | EC50 [1]: 0.09 µM
3 | SAP2/Seq. I. D. No. 20 covalent dimer: PEG (SPA2) dimer of peptide Ac-GGTYSCHFGPLTWVCKPQGG, Example 5 (Ac-GGTYSCHFGPLTWVCKPQGG-NH2; disulfide 6-15 (inferred); also: PEG (SPA2) covalent dimer) | 0.2 | 12 | 0.05 | change in potency of dimer versus parent monomer (in parentheses), murine receptor [2]: -7 X
4 | SAP2/Seq. I. D. No. 13 covalent dimer: PEG (SPA2) dimer of peptide GGTYSCHFGPLTWVCKPQ, Example 4 (GGTYSCHFGPLTWVCKPQ-NH2; disulfide 6-15 (inferred); also: PEG (SPA2) covalent dimer) | – | – | 0.002 | change in potency of dimer versus parent monomer (in parentheses), truncated human receptor ([1]; FDC-P1/trER): 10 X
5 | CC(C)C[C@@H]1NC(=O)[C@@H]2CCCN2C(=O)CNC(=O)[C@H](Cc2ccccc2)NC(=O)[C@H](Cc2c[nH]cn2)NC(=O)[C@@H](NC(=O)[C@@H](N)CO)CSSC[C@@H](C(=O)N[C@@H](CCCCN)C(N)=O)NC(=O)[C@H](C(C)C)NC(=O)[C@H](Cc2c[nH]c3ccccc23)NC(=O)[C@H]([C@@H](C)O)NC1=O [peptide (SEQ ID NO: 18)] (H-SCHFGPLTWVCK-NH2; disulfide 2-11) | – | – | – | activity in the in vitro cell proliferation assay (in words) ([2]; cell line not given): inactive
6 | SAP2/Seq. I. D. No. 8 covalent dimer #1: PEG (SPA2, MW ca. 3400) dimer of peptide GGTYSCHFGPLTWVCKPQGG, lot #1, Example 2 (GGTYSCHFGPLTWVCKPQGG-NH2; disulfide 6-15 (inferred); not fully specified) | 0.01 | 4 | 0.0015 | increase in potency versus parent peptide, murine receptor line [2]: 10 fold; change in potency of dimer versus parent monomer (in parentheses), murine receptor [2]: 10 X; ED50, cell line containing the murine EPO receptor ([2]; text of Example 11): 0.01 µM; IC50 ([3]; concentration reducing [125I]EPO binding to EBP beads by 50%, 0.5 nM [125I]EPO): 20 µM; increase in potency versus parent peptide, human receptor line [1]: ~60 fold; change in potency of dimer versus parent monomer (in parentheses), truncated human receptor ([1]; FDC-P1/trER): 60 X; ED50, cell line containing the human EPO receptor ([1]; text of Example 11): 1.5 nM
7 | GGLYACHMGPMTWVCQPLRG [Seq. I. D. No. 14] | 0.1 | – | 0.08 | –
8 | SAP2/Seq. I. D. No. 8 covalent dimer #2: PEG (SPA2, MW ca. 3400) dimer of peptide GGTYSCHFGPLTWVCKPQGG, lot #2, Example 3 (GGTYSCHFGPLTWVCKPQGG-NH2; disulfide 6-15 (inferred); not fully specified) | 0.01 | 3 | 0.002 | increase in potency versus parent peptide, murine receptor line [2]: 10 fold; change in potency of dimer versus parent monomer (in parentheses), murine receptor [2]: 10 X; increase in potency versus parent peptide, human receptor line [1]: 45 fold; change in potency of dimer versus parent monomer (in parentheses), truncated human receptor ([1]; FDC-P1/trER): 45 X

The next lines start with results.

Row | EPO-ED50 murine receptor [2] [µM] | Relative Binding (binding relative to Seq. I. D. No. 8) [3] | EC50 [1, 4] [µM] | Molecule | other results
9 | 1 | > 40 | 0.4 | mPEG/Seq. I. D. No. 8, peak #2: conjugate of peptide SEQ ID NO: 8 with m-SPA-PEG (MW ca. 5000), two PEG molecules coupled; control (GGTYSCHFGPLTWVCKPQGG-NH2; disulfide 6-15 (inferred); not fully specified; also: two mPEG 5000 (m-SPA-PEG) conjugated, sites not given here) [reference compound] | –
10 | 0.03 | 4 | 0.06 | Ac-GGTYSCHFGPLTWVCKPQGG (Ac-GGTYSCHFGPLTWVCKPQGG-NH2; disulfide 6-15 (inferred)) [Seq. I. D. No. 20] | –
11 | 2 | 60 | 0.1 | mPEG/Seq. I. D. No. 8, peak #1: mono-PEG conjugate of peptide SEQ ID NO: 8 with m-SPA-PEG (MW ca. 5000), one PEG coupled; control (GGTYSCHFGPLTWVCKPQGG-NH2; disulfide 6-15 (inferred); not fully specified; also: one mPEG 5000 (m-SPA-PEG) conjugated, site not given here) [reference compound] | –
